From PMC3983052

Molecular target: AaSR-C-Full (full-length A. aegypti scavenger receptor-C with its trans-membrane region, 23-494 aa) (Aedes aegypti)
Assay: flow cytometry on cells

purified inactivated DENV-2 virions (complex)
percent of AaSR-C-expressing cells bound by DENV-2 virions: > 90%
